Patent EP3461842A1 (Amgen Research (Munich) GmbH, dated 2019)

T1: 1-27 CD3-EpCAM, squirrel monkey 27 mer (Saimiri sciureus CD3 epsilon 1-27, Flag tag, cynomolgus EpCAM) (Saimiri sciureus; cynomolgus monkey)
T1 construct: On transfected cells
T1 chain: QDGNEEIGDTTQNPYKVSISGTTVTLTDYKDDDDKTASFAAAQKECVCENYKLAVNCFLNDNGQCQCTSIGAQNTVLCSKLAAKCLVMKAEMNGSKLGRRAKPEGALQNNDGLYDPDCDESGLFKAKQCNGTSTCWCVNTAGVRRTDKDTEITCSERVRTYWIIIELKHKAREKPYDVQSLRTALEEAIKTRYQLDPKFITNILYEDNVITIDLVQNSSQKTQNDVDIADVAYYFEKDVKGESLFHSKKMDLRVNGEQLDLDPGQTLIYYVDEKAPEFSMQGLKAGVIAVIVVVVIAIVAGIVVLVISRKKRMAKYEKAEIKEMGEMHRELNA

T2: 1-27 CD3-EpCAM, human 27 mer (N-terminal amino acids 1-27 of human CD3 epsilon, Flag tag, cynomolgus EpCAM) (human; cynomolgus monkey)
T2 chain: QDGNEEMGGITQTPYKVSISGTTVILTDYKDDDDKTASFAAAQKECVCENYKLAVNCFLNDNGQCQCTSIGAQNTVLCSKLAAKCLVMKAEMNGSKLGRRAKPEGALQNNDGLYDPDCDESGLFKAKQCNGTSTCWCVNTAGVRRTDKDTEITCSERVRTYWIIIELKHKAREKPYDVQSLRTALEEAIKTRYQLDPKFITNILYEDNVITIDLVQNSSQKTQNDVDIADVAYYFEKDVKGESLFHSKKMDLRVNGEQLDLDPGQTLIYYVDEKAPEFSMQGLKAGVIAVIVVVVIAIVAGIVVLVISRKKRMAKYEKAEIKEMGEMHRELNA

T3: 1-27 CD3-EpCAM, swine 27 mer (Sus scrofa CD3 epsilon 1-27, Flag tag, cynomolgus EpCAM) (Sus scrofa; cynomolgus monkey)
T3 construct: Negative control, on transfected cells
T3 chain: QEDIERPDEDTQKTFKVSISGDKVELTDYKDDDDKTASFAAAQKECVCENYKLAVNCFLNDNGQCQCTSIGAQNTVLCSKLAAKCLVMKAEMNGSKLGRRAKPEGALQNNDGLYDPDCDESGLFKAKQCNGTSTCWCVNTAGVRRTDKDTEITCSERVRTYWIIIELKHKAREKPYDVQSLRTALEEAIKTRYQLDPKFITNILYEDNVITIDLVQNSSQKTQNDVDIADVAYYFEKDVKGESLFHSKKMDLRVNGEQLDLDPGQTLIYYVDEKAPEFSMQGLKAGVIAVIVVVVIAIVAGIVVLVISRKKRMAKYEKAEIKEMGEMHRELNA


Key:
[1] = biological target: T4, human CD3 (epsilon) on human T cells (HPB-ALL cell line, human PBMC) (human, UniProt P07766 23-207); assay: FACS, HPB-ALL
T4 construct: whole, on cells; also called native CD3
T4 sequence (P07766 23-207): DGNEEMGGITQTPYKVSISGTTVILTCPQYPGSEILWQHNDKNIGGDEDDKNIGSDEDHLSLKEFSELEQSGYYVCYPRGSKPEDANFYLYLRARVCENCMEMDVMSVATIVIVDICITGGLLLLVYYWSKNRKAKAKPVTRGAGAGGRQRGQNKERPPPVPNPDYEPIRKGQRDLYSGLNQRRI

[2] = biological target: T5, 1-27 CD3-Fc (N-terminal amino acids 1-27 of the mature human CD3 epsilon chain fused to the hinge and Fc … (human)); assay: ELISA, captured 1-27 CD3-Fc, periplasmic scFv
T5 construct: The synthetic gene also codes a 19 amino acid immunoglobulin leader; also called 27 aa huCD3E; human CD3 epsilon (aa 1-27)- Fc fusion protein

[3] = biological target: T1, 1-27 CD3-EpCAM, squirrel monkey 27 mer …; assay: FACS, 293-HEK transfectant
[4] = biological target: T2, 1-27 CD3-EpCAM, human 27 mer …; assay: FACS, 293-HEK transfectant
[5] = biological target: T3, 1-27 CD3-EpCAM, swine 27 mer (Sus …); assay: FACS on transfected 293-HEK cells
[6] = biological target: T5, 1-27 CD3-Fc (N-terminal amino acids …); assay: SPR (Biacore 2000), 1-27 CD3-Fc coupled to CM5 chip, Langmuir model

| Binder | binding result [2] | Kd [6] [nM] | further results |
| --- | --- | --- | --- |
| MCSP-G4 HLP x E2M HLP (bispecific antibody, plus C-terminal His6 tag) QVQLVQSGAEVKRPGASMKVSCKASGYTFTNYYIHWVRQAPGQGLEWMGWINPNSGATNYAQKFQGRVTMTRDTSTSTVYMELSSLRSEDTAVYYCAKSWVSWFASWGQGTLVTVSSGGGGSGGGGSGGGGSELVMTQSPDSLAVSLGERATINCKSSQSVLNSSNNRNYLAWYQQKPGQPPKLLIYWASTRESGVPDRFSGSGSGTDFTLTISGLQAEDVAVYYCQQHYSTPFTFGPGTKVDIKSGGGGSEVQLLESGGGLVQPGGSLKLSCAASGFTFNGYAMNWVRQAPGKGLEWVARIRSKYNNYATYYADSVKERFTISRDDSKNTAYLQMNNLKTEDTAVYYCVRHRNFGNSYLSWFAYWGQGTLVTVSSGGGGSGGGGSGGGGSELVVTQEPSLTVSPGGTVTLTCRSSTGAVTSGYYPNWVQQKPGQAPRGLIGATDMRPSGTPARFSGSLLGGKAALTLSGVQPEDEAEYYCALWYSNRWVFGGGTKLTVL |  |  | binding result [1]: binds |
| EGFR-21-63 LH x A2J HLP (bispecific antibody, plus C-terminal His6 tag; also called EGFR LH x A2J HLP) DIVLTQSPASLPVSLGQRATISCRASQSVSSSTYSYIHWYQQKPGQPPKLLITYASNLESGVPARFSGSGSGTDFTLDIHPVEEDDSSTYYCQHSWEIPFTFGSGTKLEIKGGGGSGGGGSGGGGSQVQLQQSGPDLVKPGASVKMSCKASGHTFTDCVIIWVKQRAGQGLEWIGQIYPGTGRSYYNEIFKGKATLTADKSSNTVHIQLSSLTSEDSAVYFCALSTLIHGTWFSYWGQGTLVTVSSGGGGSEVQLLESGGGLVQPGGSLKLSCAASGFTFNVYAMNWVRQAPGKGLEWVARIRSKYNNYATYYADSVKKRFTISRDDSKNTAYLQMNNLKTEDTAVYYCVRHGNFGNSYLSWWAYWGQGTLVTVSSGGGGSGGGGSGGGGSELVVTQEPSLTVSPGGTVTLTCRSSTGAVTSGYYPNWVQQKPGQAPRGLIGATDMRPSGTPARFSGSLLGGKAALTLSGVQPEDEAEYYCALWYSNRWVFGGGTKLTVL |  | 249 |  |
| EGFR-21-63 LH x E2M HLP (bispecific antibody, plus C-terminal His6 tag; also called EGFR LH x E2M HLP) DIVLTQSPASLPVSLGQRATISCRASQSVSSSTYSYIHWYQQKPGQPPKLLITYASNLESGVPARFSGSGSGTDFTLDIHPVEEDDSSTYYCQHSWEIPFTFGSGTKLEIKGGGGSGGGGSGGGGSQVQLQQSGPDLVKPGASVKMSCKASGHTFTDCVIIWVKQRAGQGLEWIGQIYPGTGRSYYNEIFKGKATLTADKSSNTVHIQLSSLTSEDSAVYFCALSTLIHGTWFSYWGQGTLVTVSSGGGGSEVQLLESGGGLVQPGGSLKLSCAASGFTFNGYAMNWVRQAPGKGLEWVARIRSKYNNYATYYADSVKERFTISRDDSKNTAYLQMNNLKTEDTAVYYCVRHRNFGNSYLSWFAYWGQGTLVTVSSGGGGSGGGGSGGGGSELVVTQEPSLTVSPGGTVTLTCRSSTGAVTSGYYPNWVQQKPGQAPRGLIGATDMRPSGTPARFSGSLLGGKAALTLSGVQPEDEAEYYCALWYSNRWVFGGGTKLTVL |  | 2460 |  |

Further lines, with some results ahead:

| binding result [2] | Kd [6] [nM] | Binder | further results |
| --- | --- | --- | --- |
| binds |  | A2J HLP single-chain antibody (scFv, Crude periplasmic preparation, Flag and His6 tags) scFv: EVQLLESGGGLVQPGGSLKLSCAASGFTFNVYAMNWVRQAPGKGLEWVARIRSKYNNYATYYADSVKKRFTISRDDSKNTAYLQMNNLKTEDTAVYYCVRHGNFGNSYLSWWAYWGQGTLVTVSSGGGGSGGGGSGGGGSELVVTQEPSLTVSPGGTVTLTCRSSTGAVTSGYYPNWVQQKPGQAPRGLIGATDMRPSGTPARFSGSLLGGKAALTLSGVQPEDEAEYYCALWYSNRWVFGGGTKLTVL |  |
| binds |  | E2M HLP single-chain antibody (scFv, Crude periplasmic preparation, Flag and His6 tags) scFv: EVQLLESGGGLVQPGGSLKLSCAASGFTFNGYAMNWVRQAPGKGLEWVARIRSKYNNYATYYADSVKERFTISRDDSKNTAYLQMNNLKTEDTAVYYCVRHRNFGNSYLSWFAYWGQGTLVTVSSGGGGSGGGGSGGGGSELVVTQEPSLTVSPGGTVTLTCRSSTGAVTSGYYPNWVQQKPGQAPRGLIGATDMRPSGTPARFSGSLLGGKAALTLSGVQPEDEAEYYCALWYSNRWVFGGGTKLTVL | binding result [3]: binds; binding result [4]: binds; binding result [5]: no binding |
